For assay [1], the target named is opioid sensor based on the Mu-opioid receptor (cpGFP inserted into the Loop3 of the Mu-opioid receptor) (human). Description: in situ fluorescence titration (drug/response curve, 1 nM to 1 µM DAMGO) on HEK293T cells expressing the opioid sensor.
The target is the same in assay [2]. Description: cell-based or functional assay.

DAMGO (peptide) registered a Kd in assay [1] of 25 nM. The substance further gave a ΔF/F (fluorescence change of the sensor) in assay [2] of 25%.

These data come from patent US20210101960A1.
